doi:10.1101/2023.09.14.557805, “Determinants of DDX3X sensitivity uncovered using a helicase activity in translation reporter” (bioRxiv, 2023)

Biological target: T1, S. cerevisiae eIF4E (S. cerevisiae, UniProt P07260 1-213)
T1 construct: eIF4E of S. cerevisiae; 15N isotope labelled; m7GTP added to 250 μM in the NMR sample; source: E. coli BL21-star, purified (nickel resin, TEV cleavage, m7G cap resin)
T1 sequence (looked up): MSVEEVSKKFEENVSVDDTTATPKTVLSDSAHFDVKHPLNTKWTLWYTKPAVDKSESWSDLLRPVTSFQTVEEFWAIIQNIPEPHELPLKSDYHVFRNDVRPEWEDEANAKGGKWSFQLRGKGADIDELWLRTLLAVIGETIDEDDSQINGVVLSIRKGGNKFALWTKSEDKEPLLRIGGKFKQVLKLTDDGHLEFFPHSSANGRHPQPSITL
Assay: NMR titration; 15N HSQC of 200 μM 15N eIF4E with 250 μM m7GTP, peptide added to 1 mM; 50 mM phosphate pH 6.5, 50 mM KCl, 10% D2O, 298 K, 900 MHz
Conditions: both partners purified

B1: 4E-BP1 peptide (human 4E-BP1 amino acids 51–67) (peptide)
peptide: RIIYDRKFLMECRNSPV
notes: 4E-BP1, human, amino acids 51–67; Dissolved at 50 mM in DMSO; source: synthetic peptide (Elim Bio)
binding result: binds
